Data taken from patent US20050288217A1.

Target: αVβ3 integrin (UniProt P06756)
Experiment: binding to αVβ3, against the unsubstituted sequence

αVβ3 integrin, sequence (P06756 31-1048, chain 1 of 2): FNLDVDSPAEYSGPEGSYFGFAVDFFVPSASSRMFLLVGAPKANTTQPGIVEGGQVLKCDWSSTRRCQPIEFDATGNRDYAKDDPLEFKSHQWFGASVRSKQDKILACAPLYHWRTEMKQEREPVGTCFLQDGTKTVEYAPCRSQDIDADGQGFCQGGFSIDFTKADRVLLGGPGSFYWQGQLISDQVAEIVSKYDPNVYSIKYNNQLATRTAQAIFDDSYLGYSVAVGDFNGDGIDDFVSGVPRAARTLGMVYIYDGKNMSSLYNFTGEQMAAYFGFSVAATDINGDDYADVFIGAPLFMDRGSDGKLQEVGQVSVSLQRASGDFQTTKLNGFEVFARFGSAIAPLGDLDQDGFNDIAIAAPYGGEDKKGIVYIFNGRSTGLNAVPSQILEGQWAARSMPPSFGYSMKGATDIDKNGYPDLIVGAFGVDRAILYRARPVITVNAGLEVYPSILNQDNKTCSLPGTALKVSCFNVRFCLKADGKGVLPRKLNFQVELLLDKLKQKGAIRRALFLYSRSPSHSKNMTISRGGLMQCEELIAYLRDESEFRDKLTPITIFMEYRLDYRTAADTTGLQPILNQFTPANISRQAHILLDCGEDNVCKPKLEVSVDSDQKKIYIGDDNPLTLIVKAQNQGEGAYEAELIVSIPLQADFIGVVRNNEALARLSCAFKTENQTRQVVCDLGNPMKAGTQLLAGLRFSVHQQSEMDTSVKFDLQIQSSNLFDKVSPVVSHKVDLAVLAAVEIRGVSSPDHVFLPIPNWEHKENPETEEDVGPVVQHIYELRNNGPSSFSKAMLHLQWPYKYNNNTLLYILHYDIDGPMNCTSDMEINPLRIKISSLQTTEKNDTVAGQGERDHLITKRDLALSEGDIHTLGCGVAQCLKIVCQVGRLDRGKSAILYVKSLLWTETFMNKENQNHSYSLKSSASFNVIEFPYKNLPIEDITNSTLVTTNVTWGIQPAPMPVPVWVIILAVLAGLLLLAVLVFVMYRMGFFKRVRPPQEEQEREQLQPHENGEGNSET
αVβ3 integrin, sequence (P05106 27-788, chain 2 of 2, further chain): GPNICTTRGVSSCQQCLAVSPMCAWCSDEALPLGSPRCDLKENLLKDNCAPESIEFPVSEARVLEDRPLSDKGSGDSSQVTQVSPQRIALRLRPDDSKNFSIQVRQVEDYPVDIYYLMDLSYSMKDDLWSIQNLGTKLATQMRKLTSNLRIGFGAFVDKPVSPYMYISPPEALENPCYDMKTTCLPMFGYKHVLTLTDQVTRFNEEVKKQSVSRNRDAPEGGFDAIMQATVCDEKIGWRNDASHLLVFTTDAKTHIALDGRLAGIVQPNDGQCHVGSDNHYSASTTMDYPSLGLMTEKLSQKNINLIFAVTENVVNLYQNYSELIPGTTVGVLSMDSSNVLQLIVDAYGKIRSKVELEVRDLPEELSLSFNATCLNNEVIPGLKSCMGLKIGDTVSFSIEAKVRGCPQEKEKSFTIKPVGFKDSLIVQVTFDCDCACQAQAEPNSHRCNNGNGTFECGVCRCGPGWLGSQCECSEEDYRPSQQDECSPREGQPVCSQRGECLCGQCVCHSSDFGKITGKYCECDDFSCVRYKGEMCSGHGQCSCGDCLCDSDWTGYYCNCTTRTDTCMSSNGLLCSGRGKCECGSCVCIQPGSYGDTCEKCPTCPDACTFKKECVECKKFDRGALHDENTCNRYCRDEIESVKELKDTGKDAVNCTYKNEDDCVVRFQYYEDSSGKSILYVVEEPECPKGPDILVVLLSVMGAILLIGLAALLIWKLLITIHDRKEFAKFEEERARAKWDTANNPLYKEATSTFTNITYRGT

decrease in binding: 70%
Substance: vitronectin sequence with the single arginine at position 374 changed to alanine (peptide)
